# Reference: patent US20120288511A1 (INDIANA UNIVERSITY RESEARCH AND TECHNOLOGY, published 2012)
# Where two headings read alike, the source gives them in different places. Non-standard residues stand in square brackets, D forms with d. No end group written: not given here. *: point of attachment. Palmitoyl = CCCCCCCCCCCCCCCC(=O)*; Aib = CC(C)(N)C(=O)O
# B1: Peptide 15 (peptide)
# peptide: KHSQETFTSDYSKYLDSRRAQDFVQWLMNT
# modifications: not fully specified; amidated unless FIG. 1 shows OH; lactam, D-residues, Orn/Dab only as drawn in FIG. 1
# B2: Peptide 14 (peptide)
# peptide: KHSQETFTSDYSKYLDSRRAQDFVQWLMNT
# modifications: not fully specified; amidated unless FIG. 1 shows OH; lactam, D-residues, Orn/Dab only as drawn in FIG. 1
# Experiments:
# Experiment in all cases: cell-based or functional assay
# GLP-1 receptor [1] = target: T1, GLP-1 receptor (human, UniProt P43220 24-463)
# glucagon receptor [2] = target: T2, glucagon receptor (human, UniProt P47871 26-477)
# GLP-1 receptor [3] = target: T1, GLP-1 receptor; remark: listed apart in the source
# GLP-1 receptor [4] = target: T1, GLP-1 receptor; remark: listed apart in the source
# glucagon receptor [5] = target: T2, glucagon receptor; remark: listed apart in the source
# GLP-1 receptor [6] = target: T1, GLP-1 receptor; remark: listed apart in the source
# glucagon receptor [7] = target: T2, glucagon receptor; remark: listed apart in the source
# GLP-1 receptor [8] = target: T1, GLP-1 receptor; remark: listed apart in the source
# glucagon receptor [9] = target: T2, glucagon receptor; remark: listed apart in the source
# T2 sequence (P47871 26-477): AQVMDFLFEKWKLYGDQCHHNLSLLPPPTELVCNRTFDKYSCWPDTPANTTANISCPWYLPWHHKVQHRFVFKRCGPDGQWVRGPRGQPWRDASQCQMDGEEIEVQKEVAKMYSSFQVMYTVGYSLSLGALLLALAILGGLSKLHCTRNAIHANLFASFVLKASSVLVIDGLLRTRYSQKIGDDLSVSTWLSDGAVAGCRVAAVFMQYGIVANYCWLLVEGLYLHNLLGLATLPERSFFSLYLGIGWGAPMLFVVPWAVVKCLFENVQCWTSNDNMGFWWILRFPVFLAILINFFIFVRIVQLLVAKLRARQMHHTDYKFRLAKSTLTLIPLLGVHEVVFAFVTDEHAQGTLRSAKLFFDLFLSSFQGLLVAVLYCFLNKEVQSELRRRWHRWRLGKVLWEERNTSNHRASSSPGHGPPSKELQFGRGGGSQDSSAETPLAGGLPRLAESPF
binder,measurement,setting,value
HSQGTFTSDYSKYLDEKRAKEFVQWLMNT-NH2 (not fully specified; also: further groups not given here) [Glucagon Analog 65],% Relative Activity vs native GLP-1,GLP-1 receptor [1],64%
same,EC50 (cAMP luciferase reporter),GLP-1 receptor [1],0.036 nM
same,% Relative Activity vs native glucagon,glucagon receptor [2],264%
same,EC50 (cAMP luciferase reporter),glucagon receptor [2],0.053 nM
HSQGTFTSDYSKYLDSKRAQEFVQWLMNT-NH2 [Peptide 1],EC50 (cAMP luciferase reporter),GLP-1 receptor [3],0.13 nM
HSQGTFTSDYSKYLDEKRAKEFVCWLLDGGPSSGAPPPS-NH2 (not fully specified; also: further groups not given here) [Glucagon Analog 61],% Relative Activity vs native GLP-1,GLP-1 receptor [1],39%
same,EC50 (cAMP luciferase reporter),GLP-1 receptor [1],0.096 nM
same,% Relative Activity vs native glucagon,glucagon receptor [2],88%
same,EC50 (cAMP luciferase reporter),glucagon receptor [2],0.017 nM
HSQGTFTSDYSKYLDEQAVRLFICWLLDT-NH2 (not fully specified; also: further groups not given here) [Glucagon Analog 87],EC50 (cAMP luciferase reporter),GLP-1 receptor [4],0.013 nM
same,percent in parentheses (not explained),GLP-1 receptor [4],284%
same,EC50 (cAMP luciferase reporter),glucagon receptor [5],0.021 nM
same,percent in parentheses (not explained),glucagon receptor [5],71%
HSQGTFTSDYSKYLDEQAVRLFICWLLDGGPSSGAPPPS-NH2 (not fully specified; also: further groups not given here) [Glucagon Analog 84],EC50 (cAMP luciferase reporter),GLP-1 receptor [4],0.006 nM
same,percent in parentheses (not explained),GLP-1 receptor [4],600%
same,EC50 (cAMP luciferase reporter),glucagon receptor [5],0.132 nM
same,percent in parentheses (not explained),glucagon receptor [5],14.4%
HSQGTFTSDKSKYLDEQAAKEFICWLLDTGG (not fully specified) [Glucagon Analog 56],% Relative Activity vs native GLP-1,GLP-1 receptor [6],125%
same,EC50 (cAMP luciferase reporter),GLP-1 receptor [6],0.068 nM
same,% Relative Activity vs native glucagon,glucagon receptor [7],272%
same,EC50 (cAMP luciferase reporter),glucagon receptor [7],0.018 nM
HSQGTFTSDKSKYLDEQAAKEFIC(PEG 40 kDa)WLLDTGG-NH2 (not fully specified; also: further groups not given here) [Glucagon Analog 78],% Relative Activity vs native GLP-1,GLP-1 receptor [8],196%
same,EC50 (cAMP luciferase reporter),GLP-1 receptor [8],0.026 nM
same,% Relative Activity vs native glucagon,glucagon receptor [9],44%
same,EC50 (cAMP luciferase reporter),glucagon receptor [9],140000 nM
B1,EC50 (cAMP luciferase reporter),GLP-1 receptor [3],73.4 nM
HSQGTFTSDYSKYLDSKRAQEFVQWLMNT-NH2 (also: non-coded residues and acylation only) [Glucagon Analog 66],EC50 (cAMP luciferase reporter),GLP-1 receptor [1],0.13 nM
HSQKTFTEDYSKYLDSRRAQDFVQWLMNT (not fully specified; also: further groups not given here) [Peptide 16],EC50 (cAMP luciferase reporter),GLP-1 receptor [3],121 nM
B2,EC50 (cAMP luciferase reporter),GLP-1 receptor [3],33 nM
HSQGTFTSDYSKYLDEEAVRLFICWLMNT-NH2 (also: DPP-IV-resistant residue at position 1 or 2) [Glucagon Analog 32],EC50 (cAMP luciferase reporter),GLP-1 receptor [4],0.007 nM
same,EC50 (cAMP luciferase reporter),glucagon receptor [5],0.22 nM
HSQGTFTSDKSKYLDEQAAKEFICWLLDTG (not fully specified) [Glucagon Analog 55],% Relative Activity vs native GLP-1,GLP-1 receptor [6],16%
same,EC50 (cAMP luciferase reporter),GLP-1 receptor [6],0.516 nM
same,% Relative Activity vs native glucagon,glucagon receptor [7],7%
same,EC50 (cAMP luciferase reporter),glucagon receptor [7],0.55 nM
HSQGTFTSDKSKYLDEEAVRLFIEWLMNT-NH2 (also: Lys-γGlu-C16 (K(B)) at unstated position) [Glucagon Analog 37],EC50 (cAMP luciferase reporter),GLP-1 receptor [4],0.011 nM
same,EC50 (cAMP luciferase reporter),glucagon receptor [5],0.119 nM
"HSQGTFTSDKSKYLDEQAVRLFIC(PEG 40 kDa)WLLDT-NH2 (also: acylated amino acid at position 10, acyl group not given here) [Glucagon Analog 85]",EC50 (cAMP luciferase reporter),GLP-1 receptor [4],0.013 nM
same,percent in parentheses (not explained),GLP-1 receptor [4],284%
same,EC50 (cAMP luciferase reporter),glucagon receptor [5],0.107 nM
same,percent in parentheses (not explained),glucagon receptor [5],16%
HSQGTFTSDYSKYLD[Aib]KAVRLFICWLLDT-NH2 [Glucagon Analog 86],EC50 (cAMP luciferase reporter),GLP-1 receptor [4],0.035 nM
same,percent in parentheses (not explained),GLP-1 receptor [4],106%
same,EC50 (cAMP luciferase reporter),glucagon receptor [5],0.035 nM
same,percent in parentheses (not explained),glucagon receptor [5],43%
"HAQGTFTSDKSKYLDERAAQDFVC(PEG 40 kDa)WLLDT-NH2 (also: other non-coded residues as, not given here) [Glucagon Analog 81]",% Relative Activity vs native GLP-1,GLP-1 receptor [8],300%
same,EC50 (cAMP luciferase reporter),GLP-1 receptor [8],0.012 nM
same,% Relative Activity vs native glucagon,glucagon receptor [9],51.4%
same,EC50 (cAMP luciferase reporter),glucagon receptor [9],37000 nM
HSQGTFTSDKSKYLDEQAAKEFICWLLDE-NH2 (not fully specified; also: further groups not given here) [Glucagon Analog 82],% Relative Activity vs native GLP-1,GLP-1 receptor [8],345%
same,EC50 (cAMP luciferase reporter),GLP-1 receptor [8],0.02 nM
same,% Relative Activity vs native glucagon,glucagon receptor [9],121%
same,EC50 (cAMP luciferase reporter),glucagon receptor [9],14000 nM
HSQGTFTSDYSKYLDERRAKDFVQWLMNT-NH2 (not fully specified; also: further groups not given here) [Glucagon Analog 67],% Relative Activity vs native GLP-1,GLP-1 receptor [1],47%
same,EC50 (cAMP luciferase reporter),GLP-1 receptor [1],0.071 nM
same,% Relative Activity vs native glucagon,glucagon receptor [2],93%
same,EC50 (cAMP luciferase reporter),glucagon receptor [2],0.077 nM
HSQGTFTSDKSKYLDEQAAKEFICWLLDTE-NH2 (not fully specified; also: further groups not given here) [Glucagon Analog 83],% Relative Activity vs native GLP-1,GLP-1 receptor [8],288%
same,EC50 (cAMP luciferase reporter),GLP-1 receptor [8],0.024 nM
same,% Relative Activity vs native glucagon,glucagon receptor [9],61%
same,EC50 (cAMP luciferase reporter),glucagon receptor [9],28000 nM
HSQGTFTSDK(Palmitoyl)SKYLDEEAVRLFIEWLMNT-NH2 [Glucagon Analog 39],EC50 (cAMP luciferase reporter),GLP-1 receptor [4],0.033 nM
same,EC50 (cAMP luciferase reporter),glucagon receptor [5],2.54 nM
HSQGTFTSDYSKYLDERRAKEFVQWLMNT-NH2 (not fully specified; also: further groups not given here) [Glucagon Analog 68],% Relative Activity vs native GLP-1,GLP-1 receptor [1],44%
same,EC50 (cAMP luciferase reporter),GLP-1 receptor [1],0.075 nM
same,% Relative Activity vs native glucagon,glucagon receptor [2],104%
same,EC50 (cAMP luciferase reporter),glucagon receptor [2],0.068 nM
HSQGTFTSDKSKYLDEQAAKEFIC(PEG 40 kDa)WLLDT-NH2 (not fully specified; also: further groups not given here) [Glucagon Analog 79],% Relative Activity vs native GLP-1,GLP-1 receptor [8],41%
same,EC50 (cAMP luciferase reporter),GLP-1 receptor [8],0.125 nM
same,% Relative Activity vs native glucagon,glucagon receptor [9],26%
same,EC50 (cAMP luciferase reporter),glucagon receptor [9],240000 nM
HSQGTFTSDYSKYLDEEAVRLFICWLMNT-NH2 (also: DPP-IV-resistant residue at position 1 or 2) [Glucagon Analog 34],EC50 (cAMP luciferase reporter),GLP-1 receptor [4],0.018 nM
same,EC50 (cAMP luciferase reporter),glucagon receptor [5],0.404 nM
"HSQGTFTSDKSKYLDEQAAKEFICWLLDT (also: DPP-IV-resistant residue at position 1 or 2, not given here) [Glucagon Analog 57]",% Relative Activity vs native glucagon,glucagon receptor [7],1%
same,EC50 (cAMP luciferase reporter),glucagon receptor [7],4.8 nM
"HSQGTFTSDKSKYLDEQAAKEFICWLLDT (also: DPP-IV-resistant residue at position 1 or 2, not given here) [Glucagon Analog 53]",% Relative Activity vs native GLP-1,GLP-1 receptor [6],708%
same,EC50 (cAMP luciferase reporter),GLP-1 receptor [6],0.012 nM
same,% Relative Activity vs native glucagon,glucagon receptor [7],411%
same,EC50 (cAMP luciferase reporter),glucagon receptor [7],0.009 nM
